Data published in patent publication US20250277020A1 (Boehringer Ingelheim, published 2025).
Changes are numbered by the printed parent chain. Values belong to the binder of their own block, whether it stands above or below them.

Target: T1, Full-length human CTGF (human, UniProt P29279 27-349)
T1 construct: Corresponds to NCBI NP_001892.1 with the signal peptide omitted; purchased from R&D Systems; also called hCTGF full length; full length CTGF
T1 sequence: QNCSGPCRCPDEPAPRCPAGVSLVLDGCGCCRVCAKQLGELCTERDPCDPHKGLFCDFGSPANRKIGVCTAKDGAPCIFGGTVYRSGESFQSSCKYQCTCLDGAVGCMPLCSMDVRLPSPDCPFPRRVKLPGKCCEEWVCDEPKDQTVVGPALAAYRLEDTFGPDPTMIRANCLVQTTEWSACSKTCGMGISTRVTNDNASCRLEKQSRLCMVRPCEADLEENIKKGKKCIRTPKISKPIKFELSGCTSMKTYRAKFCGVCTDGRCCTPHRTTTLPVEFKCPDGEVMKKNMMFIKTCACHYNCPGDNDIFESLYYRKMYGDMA
Experiment: SPR, full length CTGF

B1: A76 (antibody, human IgG1, kappa, L234A L235A, V domains shown)
VH: EVQLVESGGGLVQPGGSLRLSCAASGFTFSDYYMAWVRQAPGKGLEWVANINYYGSRTDLLASLKSRFTISRDNAKNSVYLQMNSLRAEDTAVYYCARDTSRGSYFDVWGAGTTVTVSS
VL: VVMTQTPLSLPVSLGDQASISCRSSQSIVHYNGKTYLEWYLQKPGQSPQLLIYKVSNRFSGVPDRFSGSGSGTDFTLKISRVEAEDLGVYYCFQGSHFPLTFGQGTKLEIKR
- Kd: 0.18 nM

B3: A89 (antibody, human IgG1, kappa, L234A L235A, V domains shown)
VH: B1 VH with Y54E, A62E
VL: B1 VL with P11S, R23K, K34N, N57S
- Kd: 0.16 nM

B4: A91 (antibody, human IgG1, kappa, L234A L235A, V domains shown)
VH: B1 VH with Y54E
VL: B1 VL with P11S, R23K, K34N, N57S
- Kd: 0.13 nM

B6: A82 (antibody, human IgG1, kappa, L234A L235A, V domains shown)
VH: B1 VH with A62E
VL: B1 VL with G33E
- Kd: 0.36 nM

B9: A79 (antibody, human IgG1, kappa, L234A L235A, V domains shown)
VH: B1 VH with Y54D, A62E
VL: B1 VL
- Kd: 0.16 nM

B11: A90 (antibody, human IgG1, kappa, L234A L235A, V domains shown)
VH: B1 VH with A62E
VL: B1 VL with P11S, R23K, K34N, N57S
- Kd: 0.17 nM

B12: A81 (antibody, human IgG1, kappa, L234A L235A, V domains shown)
VH: B1 VH with Y54E, A62E
VL: B1 VL with G33E
- Kd: 0.29 nM

B13: A83 (antibody, human IgG1, kappa, L234A L235A, V domains shown)
VH: B1 VH with Y54E
VL: B1 VL with G33E
- Kd: 0.26 nM

B21: A93 (antibody, human IgG1, kappa, L234A L235A)
light: VVMTQTPLSLSVSLGDQASISCKSSQSIVHYNGNTYLEWYLQKPGQSPQLLIYKVSSRFSGVPDRFSGSGSGTDFTLKISRVEAEDLGVYYCFQGSHFPLTFGQGTKLEIKRTVAAPSVFIFPPSDEQLKSGTASVVCLLNNFYPREAKVQWKVDNALQSGNSQESVTEQDSKDSTYSLSSTLTLSKADYEKHKVYACEVTHQGLSSPVTKSFNRGEC
heavy: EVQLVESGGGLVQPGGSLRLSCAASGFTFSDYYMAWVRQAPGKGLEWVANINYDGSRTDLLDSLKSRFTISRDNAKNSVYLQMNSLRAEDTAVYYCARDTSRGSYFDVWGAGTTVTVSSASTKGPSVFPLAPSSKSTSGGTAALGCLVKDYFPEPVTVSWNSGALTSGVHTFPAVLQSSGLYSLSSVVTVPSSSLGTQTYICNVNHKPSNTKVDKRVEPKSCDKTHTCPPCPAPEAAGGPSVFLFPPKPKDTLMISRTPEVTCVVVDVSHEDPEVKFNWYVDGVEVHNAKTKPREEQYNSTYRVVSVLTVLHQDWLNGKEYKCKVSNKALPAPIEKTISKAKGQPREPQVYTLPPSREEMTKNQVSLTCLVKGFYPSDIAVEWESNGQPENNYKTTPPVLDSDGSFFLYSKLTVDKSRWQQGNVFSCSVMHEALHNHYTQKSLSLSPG
- Kd: 0.18 nM

B22: A92 (antibody, human IgG1, kappa, L234A L235A, V domains shown)
VH: B1 VH
VL: B1 VL with P11S, R23K, K34N, N57S
- Kd: 0.16 nM

B23: A85 (antibody, human IgG1, kappa, L234A L235A)
light: B21 light with S11P, K23R, G33E, N34K, S57N
heavy: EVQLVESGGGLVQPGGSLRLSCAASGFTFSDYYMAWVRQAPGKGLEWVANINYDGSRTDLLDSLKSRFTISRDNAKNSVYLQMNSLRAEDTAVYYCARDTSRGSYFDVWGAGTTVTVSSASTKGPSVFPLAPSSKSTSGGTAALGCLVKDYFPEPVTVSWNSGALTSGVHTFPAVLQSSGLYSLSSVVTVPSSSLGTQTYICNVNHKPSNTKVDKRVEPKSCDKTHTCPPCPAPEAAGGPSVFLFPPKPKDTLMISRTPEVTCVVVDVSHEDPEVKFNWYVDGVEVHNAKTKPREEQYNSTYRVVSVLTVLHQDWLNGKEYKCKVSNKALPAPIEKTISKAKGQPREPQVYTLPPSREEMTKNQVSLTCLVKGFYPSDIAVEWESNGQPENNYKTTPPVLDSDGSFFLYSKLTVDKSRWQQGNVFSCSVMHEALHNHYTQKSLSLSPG
- Kd: 0.28 nM

B24: A84 (antibody, human IgG1, kappa, L234A L235A, V domains shown)
VH: B1 VH
VL: B1 VL with G33E
- Kd: 0.29 nM

B25: A78 (antibody, human IgG1, kappa, L234A L235A, V domains shown)
VH: B1 VH with Y54E, A62D
VL: B1 VL
- Kd: 0.23 nM

B27: A77 (antibody, human IgG1, kappa, L234A L235A)
light: B21 light with S11P, K23R, N34K, S57N
heavy: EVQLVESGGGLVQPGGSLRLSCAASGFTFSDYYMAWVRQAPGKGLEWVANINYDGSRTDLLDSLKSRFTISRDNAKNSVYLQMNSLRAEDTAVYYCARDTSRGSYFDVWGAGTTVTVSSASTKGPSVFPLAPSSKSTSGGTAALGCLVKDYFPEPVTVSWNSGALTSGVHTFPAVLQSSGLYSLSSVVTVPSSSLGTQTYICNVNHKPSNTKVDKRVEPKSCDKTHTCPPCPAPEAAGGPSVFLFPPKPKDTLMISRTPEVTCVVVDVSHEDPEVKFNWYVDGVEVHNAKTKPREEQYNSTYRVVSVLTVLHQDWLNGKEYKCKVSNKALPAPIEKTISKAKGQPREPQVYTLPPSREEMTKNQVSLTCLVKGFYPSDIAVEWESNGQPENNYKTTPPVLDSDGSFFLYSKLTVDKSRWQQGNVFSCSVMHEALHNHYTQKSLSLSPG
- Kd: 0.23 nM

B28: A80 (antibody, human IgG1, kappa, L234A L235A)
light: B21 light with S11P, K23R, N34K, S57N
heavy: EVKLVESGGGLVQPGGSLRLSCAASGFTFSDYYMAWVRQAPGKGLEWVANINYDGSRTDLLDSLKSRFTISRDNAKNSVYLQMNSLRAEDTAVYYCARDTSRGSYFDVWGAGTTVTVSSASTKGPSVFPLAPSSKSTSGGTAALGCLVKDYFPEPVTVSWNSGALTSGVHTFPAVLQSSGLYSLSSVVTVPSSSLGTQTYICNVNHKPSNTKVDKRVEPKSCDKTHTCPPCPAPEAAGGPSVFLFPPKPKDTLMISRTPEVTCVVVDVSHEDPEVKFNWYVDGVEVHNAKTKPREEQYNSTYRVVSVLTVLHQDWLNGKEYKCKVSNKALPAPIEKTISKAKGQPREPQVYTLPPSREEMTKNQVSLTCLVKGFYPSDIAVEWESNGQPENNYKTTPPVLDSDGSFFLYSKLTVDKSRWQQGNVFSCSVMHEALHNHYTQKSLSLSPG
- Kd: 0.25 nM

B29: A87 (antibody, human IgG1, kappa, L234A L235A, V domains shown)
VH: B1 VH with Y54D, A62E
VL: B1 VL with G33E
- Kd: 0.34 nM

B30: A88 (antibody, human IgG1, kappa, L234A L235A)
light: B21 light with S11P, K23R, G33E, N34K, S57N
heavy: not shown
- Kd: 0.32 nM

Next, values leading:

- Kd: 0.21 nM
B2: A123 (antibody, human IgG1, kappa, L234A L235A, V domains shown)
VH: B1 VH with Y54E
VL: B1 VL with K34N, F59D

- Kd: 0.24 nM
B5: A121 (antibody, human IgG1, kappa, L234A L235A, V domains shown)
VH: B1 VH with Y54E, A62E
VL: B1 VL with K34N, F59D

- Kd: 0.19 nM
B7: A95 (antibody, human IgG1, kappa, L234A L235A, V domains shown)
VH: B1 VH with Y54D, A62E
VL: B1 VL with P11S, R23K, K34N, N57S

- Kd: 0.15 nM
B8: A103 (antibody, human IgG1, kappa, L234A L235A)
light: B21 light with F59A
heavy: not shown

- Kd: 0.11 nM
B10: A99 (antibody, human IgG1, kappa, L234A L235A)
light: B21 light with F59A
heavy: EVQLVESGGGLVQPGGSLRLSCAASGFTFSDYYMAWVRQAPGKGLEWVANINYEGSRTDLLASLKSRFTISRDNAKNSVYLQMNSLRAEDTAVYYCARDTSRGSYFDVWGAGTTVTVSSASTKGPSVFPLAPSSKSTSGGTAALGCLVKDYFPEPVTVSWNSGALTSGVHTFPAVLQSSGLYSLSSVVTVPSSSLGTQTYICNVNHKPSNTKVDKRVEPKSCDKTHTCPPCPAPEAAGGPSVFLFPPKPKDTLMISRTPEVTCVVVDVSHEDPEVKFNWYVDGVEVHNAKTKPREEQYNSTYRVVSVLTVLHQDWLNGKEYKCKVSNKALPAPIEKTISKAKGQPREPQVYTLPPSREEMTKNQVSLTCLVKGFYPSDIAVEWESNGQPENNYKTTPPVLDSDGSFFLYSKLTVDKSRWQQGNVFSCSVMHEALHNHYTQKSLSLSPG

- Kd: 0.17 nM
B14: A101 (antibody, human IgG1, kappa, L234A L235A)
light: B21 light with F59A
heavy: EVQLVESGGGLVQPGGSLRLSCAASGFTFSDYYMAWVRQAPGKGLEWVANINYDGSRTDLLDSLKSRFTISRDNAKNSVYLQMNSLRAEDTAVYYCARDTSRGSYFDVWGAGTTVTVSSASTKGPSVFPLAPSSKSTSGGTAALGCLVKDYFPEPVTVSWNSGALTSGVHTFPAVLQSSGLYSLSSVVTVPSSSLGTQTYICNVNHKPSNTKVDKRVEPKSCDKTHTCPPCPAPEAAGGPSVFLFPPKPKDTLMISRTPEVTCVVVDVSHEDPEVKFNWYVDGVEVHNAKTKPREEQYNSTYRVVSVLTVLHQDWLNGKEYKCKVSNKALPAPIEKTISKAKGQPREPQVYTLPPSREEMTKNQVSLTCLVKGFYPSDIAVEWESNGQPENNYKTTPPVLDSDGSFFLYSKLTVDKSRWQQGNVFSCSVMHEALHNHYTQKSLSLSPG

- Kd: 0.17 nM
B15: A104 (antibody, human IgG1, kappa, L234A L235A)
light: B21 light with F59A
heavy: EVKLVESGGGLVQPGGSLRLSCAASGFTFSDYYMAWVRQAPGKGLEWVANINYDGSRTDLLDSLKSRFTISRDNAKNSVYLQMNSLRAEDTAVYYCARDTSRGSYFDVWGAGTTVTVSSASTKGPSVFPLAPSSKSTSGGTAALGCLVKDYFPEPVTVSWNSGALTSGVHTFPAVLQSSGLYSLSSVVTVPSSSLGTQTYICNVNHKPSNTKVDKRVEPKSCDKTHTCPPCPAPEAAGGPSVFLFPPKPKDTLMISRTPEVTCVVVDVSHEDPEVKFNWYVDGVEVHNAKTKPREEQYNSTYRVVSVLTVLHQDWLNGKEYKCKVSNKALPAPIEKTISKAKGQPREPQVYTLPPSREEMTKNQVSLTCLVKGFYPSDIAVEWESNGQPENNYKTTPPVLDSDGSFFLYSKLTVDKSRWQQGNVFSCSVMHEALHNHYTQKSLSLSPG

- Kd: 0.19 nM
B16: A94 (antibody, human IgG1, kappa, L234A L235A, V domains shown)
VH: B1 VH with Y54E, A62D
VL: B1 VL with P11S, R23K, K34N, N57S

- Kd: 0.25 nM
B17: A124 (antibody, human IgG1, kappa, L234A L235A, V domains shown)
VH: B1 VH
VL: B1 VL with K34N, F59D

- Kd: 0.23 nM
B18: A122 (antibody, human IgG1, kappa, L234A L235A, V domains shown)
VH: B1 VH with A62E
VL: B1 VL with K34N, F59D

- Kd: 0.19 nM
B19: A96 (antibody, human IgG1, kappa, L234A L235A)
light: B21 light
heavy: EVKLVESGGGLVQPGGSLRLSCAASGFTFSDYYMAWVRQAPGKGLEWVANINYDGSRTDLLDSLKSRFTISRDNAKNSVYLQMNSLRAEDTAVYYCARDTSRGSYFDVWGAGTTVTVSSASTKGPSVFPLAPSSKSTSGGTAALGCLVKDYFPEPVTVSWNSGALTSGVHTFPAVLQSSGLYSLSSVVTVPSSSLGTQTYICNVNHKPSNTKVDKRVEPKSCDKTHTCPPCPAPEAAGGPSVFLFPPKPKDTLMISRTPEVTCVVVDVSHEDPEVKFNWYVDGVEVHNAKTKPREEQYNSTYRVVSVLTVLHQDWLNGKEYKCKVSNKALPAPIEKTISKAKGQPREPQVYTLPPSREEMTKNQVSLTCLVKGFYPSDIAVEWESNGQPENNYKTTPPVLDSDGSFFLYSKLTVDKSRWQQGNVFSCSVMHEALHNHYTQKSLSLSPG

- Kd: 0.15 nM
B20: A102 (antibody, human IgG1, kappa, L234A L235A)
light: B21 light with F59A
heavy: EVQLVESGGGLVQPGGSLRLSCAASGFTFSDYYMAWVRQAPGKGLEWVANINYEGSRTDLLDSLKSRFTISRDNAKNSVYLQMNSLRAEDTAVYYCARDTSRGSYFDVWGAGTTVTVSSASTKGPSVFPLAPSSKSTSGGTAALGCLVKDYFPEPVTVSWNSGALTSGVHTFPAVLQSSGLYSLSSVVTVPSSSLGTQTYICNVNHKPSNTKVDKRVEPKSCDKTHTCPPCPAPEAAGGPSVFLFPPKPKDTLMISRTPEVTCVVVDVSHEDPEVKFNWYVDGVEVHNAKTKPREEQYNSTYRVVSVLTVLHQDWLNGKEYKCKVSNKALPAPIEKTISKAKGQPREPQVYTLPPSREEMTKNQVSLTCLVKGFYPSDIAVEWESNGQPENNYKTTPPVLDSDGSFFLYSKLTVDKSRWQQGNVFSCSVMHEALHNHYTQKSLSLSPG

- Kd: 0.12 nM
B26: A98 (antibody, human IgG1, kappa, L234A L235A)
light: B21 light with F59A
heavy: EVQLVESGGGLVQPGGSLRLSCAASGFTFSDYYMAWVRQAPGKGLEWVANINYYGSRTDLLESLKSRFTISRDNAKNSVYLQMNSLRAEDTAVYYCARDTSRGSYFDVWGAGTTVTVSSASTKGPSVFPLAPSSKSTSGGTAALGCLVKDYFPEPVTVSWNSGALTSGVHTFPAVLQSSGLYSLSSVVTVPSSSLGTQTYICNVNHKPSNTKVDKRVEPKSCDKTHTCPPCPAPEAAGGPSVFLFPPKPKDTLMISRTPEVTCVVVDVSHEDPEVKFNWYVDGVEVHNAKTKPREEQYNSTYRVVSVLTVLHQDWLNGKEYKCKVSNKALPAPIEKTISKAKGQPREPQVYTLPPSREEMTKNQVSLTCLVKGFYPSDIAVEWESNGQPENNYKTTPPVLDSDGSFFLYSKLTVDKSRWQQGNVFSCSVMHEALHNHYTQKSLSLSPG

- Kd: 0.13 nM
B31: A100 (antibody, human IgG1, kappa, L234A L235A)
light: B21 light with F59A
heavy: not shown

- Kd: 0.26 nM
B32: A125 (antibody, human IgG1, kappa, L234A L235A)
light: B21 light with S11P, K23R, S57N, F59D
heavy: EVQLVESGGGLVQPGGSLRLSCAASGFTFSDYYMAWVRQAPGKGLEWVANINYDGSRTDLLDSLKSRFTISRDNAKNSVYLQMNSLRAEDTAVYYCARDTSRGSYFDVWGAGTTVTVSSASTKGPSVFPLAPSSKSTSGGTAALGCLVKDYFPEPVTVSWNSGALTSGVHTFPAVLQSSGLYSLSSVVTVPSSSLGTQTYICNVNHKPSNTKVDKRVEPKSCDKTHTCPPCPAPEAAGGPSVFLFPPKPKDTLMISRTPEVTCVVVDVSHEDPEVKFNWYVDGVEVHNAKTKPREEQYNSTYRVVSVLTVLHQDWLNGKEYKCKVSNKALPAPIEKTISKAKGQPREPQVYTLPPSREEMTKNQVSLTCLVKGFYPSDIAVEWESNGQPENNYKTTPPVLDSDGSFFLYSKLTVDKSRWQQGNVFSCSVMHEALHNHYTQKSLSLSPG
